Data on 1 substance can be found in US12649772B2.

The Kd is the free concentration of one partner at which half of the binding sites on the other are occupied at equilibrium, for simple one-to-one binding.

This assay concerns the target myelin basic protein peptide on HLA-DRB1*15:01 (human). As to the kind of experiment: estimate stated in the description; not measured in this filing.

Consider Ob.1A12, for which the Kd is more than 100 µM.
